In publication doi:10.1101/2021.12.16.472929 (bioRxiv, 2021):
Read-outs that look alike come from different tables or passages of the source.

Assays:
SEC-SAXS [1] = target: the molecule itself; assay: SEC-SAXS
SEC = target: the molecule itself; assay: SEC
SEC-SAXS [2] = target: the molecule itself; assay: SEC-SAXS; remark: listed apart in the source

B1: MBP-2rNT, N-terminal domain of rat Arc (residues 24-137) with the poly-Ala mutation, His6-MBP fusion (domain or fragment)
chain: KPNVILQIGKCRAEMLEHVRRTHRHLLTEVSKQVERELKGLHRSVGKLENNLDGYVPTGDSQRWKKSIKACLCRCQETIANLERWVKREAAAAAAAFYRLERWADRLESMGGKY
In the case of B1, the “stoichiometry N” value (SEC-SAXS [1]) is reported as 2.

B2: FLhArc, full-length human Arc (capsid / high-molecular-weight forms) (natural protein)
chain: MELDHRTSGGLHAYPGPRGGQVAKPNVILQIGKCRAEMLEHVRRTHRHLLAEVSKQVERELKGLHRSVGKLESNLDGYVPTSDSQRWKKSIKACLCRCQETIANLERWVKREMHVWREVFYRLERWADRLESTGGKYPVGSESARHTVSVGVGGPESYCHEADGYDYTVSPYAITPPPAAGELPGQEPAEAQQYQPWVPGEDGQPSPGVDTQIFEDPREFLSHLEEYLRQVGGSEEYWLSQIQNHMNGPAKKWWEFKQGSVKNWVEFKKEFLQYSEGTLSREAIQRELDLPQKQGEPLDQFLWRKRDLYQTLYVDADEEEIIQYVVGTLQPKLKRFLRHPLPKTLEQLIQRGMEVQDDLEQAAEPAGPHLPVEDEAETLTPAPNSESVASDRTQPE
B2: binds (SEC).

B3: FLrArc-7A, full-length rat Arc with a poly-Ala mutation of residues 113-119 (natural protein)
chain: MELDHMTTGGLHAYPAPRGGPAAKPNVILQIGKCRAEMLEHVRRTHRHLLTEVSKQVERELKGLHRSVGKLENNLDGYVPTGDSQRWKKSIKACLCRCQETIANLERWVKREAAAAAAAFYRLERWADRLESMGGKYPVGSEPARHTVSVGVGGPEPYCQEADGYDYTVSPYAITPPPAAGELPEQESVGAQQYQSWVPGEDGQPSPGVDTQIFEDPREFLSHLEEYLRQVGGSEEYWLSQIQNHMNGPAKKWWEFKQGSVKNWVEFKKEFLQYSEGTLSREAIQRELDLPQKQGEPLDQFLWRKRDLYQTLYVDAEEEEIIQYVVGTLQPKFKRFLRHPLPKTLEQLIQRGMEVQDGLEQAAEPSVTPLPTEDETEALTPALTSESVASDRTQPE
For B3, the “stoichiometry N” value (SEC-SAXS [2]) was 2.
